# From article PMC6156764
# B1: Flag-tagged wild-type GBP-1 fragment α7–13 (residues 311–582), P32455 E383A; L384A; Q387A; L388A; E389A (protein)
# chain: CMENAVLALAQIENSAAVQKAIAHYEQQMGQKVQLPTETLQELLDLHRDSEREAIEVFIRSSFKDVDHLFQKAAAAAAAKKRDDFCKQNQEASSDRCSALLQVIFSPLEEEVKAGIYSKPGGYRLFVQKLQDLKKKYYEEPRKGIQAEEILQTYLKSKESMTDAILQTDQTLTEKEKEIEVERVKAESAQASAKMLQEMQRKNEQMMEQKERSYQEHLKQLTEKMENDRVQLLKEQERTLALKLQEQEQLLKEGFQKESRIMKNEIQDLQTK
# B2: Flag-tagged wild-type GBP-1 fragment α7–13 (residues 311–582), P32455 K390A; K391A; R392A; D393A; D394A; F395A; C396A (protein)
# chain: CMENAVLALAQIENSAAVQKAIAHYEQQMGQKVQLPTETLQELLDLHRDSEREAIEVFIRSSFKDVDHLFQKELAAQLEAAAAAAAKQNQEASSDRCSALLQVIFSPLEEEVKAGIYSKPGGYRLFVQKLQDLKKKYYEEPRKGIQAEEILQTYLKSKESMTDAILQTDQTLTEKEKEIEVERVKAESAQASAKMLQEMQRKNEQMMEQKERSYQEHLKQLTEKMENDRVQLLKEQERTLALKLQEQEQLLKEGFQKESRIMKNEIQDLQTK
# B3: Flag-tagged wild-type GBP-1 fragment α7–13 (residues 311–582), P32455 V376A; D377A; H378A; L379A; F380A; Q381A; K382A (protein)
# chain: CMENAVLALAQIENSAAVQKAIAHYEQQMGQKVQLPTETLQELLDLHRDSEREAIEVFIRSSFKDAAAAAAAELAAQLEKKRDDFCKQNQEASSDRCSALLQVIFSPLEEEVKAGIYSKPGGYRLFVQKLQDLKKKYYEEPRKGIQAEEILQTYLKSKESMTDAILQTDQTLTEKEKEIEVERVKAESAQASAKMLQEMQRKNEQMMEQKERSYQEHLKQLTEKMENDRVQLLKEQERTLALKLQEQEQLLKEGFQKESRIMKNEIQDLQTK
# B4: Flag-tagged wild-type GBP-1 fragment α7–13 (residues 311–582), P32455 K397A; Q398A; N399A; Q400A; E401A; S403A (protein)
# chain: CMENAVLALAQIENSAAVQKAIAHYEQQMGQKVQLPTETLQELLDLHRDSEREAIEVFIRSSFKDVDHLFQKELAAQLEKKRDDFCAAAAAAASDRCSALLQVIFSPLEEEVKAGIYSKPGGYRLFVQKLQDLKKKYYEEPRKGIQAEEILQTYLKSKESMTDAILQTDQTLTEKEKEIEVERVKAESAQASAKMLQEMQRKNEQMMEQKERSYQEHLKQLTEKMENDRVQLLKEQERTLALKLQEQEQLLKEGFQKESRIMKNEIQDLQTK
# B5: Flag-tagged wild-type GBP-1 fragment α7–13 (residues 311–582), P32455 S404A; D405A; R406A; C407A; S408A; L410A (protein)
# chain: CMENAVLALAQIENSAAVQKAIAHYEQQMGQKVQLPTETLQELLDLHRDSEREAIEVFIRSSFKDVDHLFQKELAAQLEKKRDDFCKQNQEASAAAAAAALQVIFSPLEEEVKAGIYSKPGGYRLFVQKLQDLKKKYYEEPRKGIQAEEILQTYLKSKESMTDAILQTDQTLTEKEKEIEVERVKAESAQASAKMLQEMQRKNEQMMEQKERSYQEHLKQLTEKMENDRVQLLKEQERTLALKLQEQEQLLKEGFQKESRIMKNEIQDLQTK
# B6: Flag-tagged wild-type GBP-1 fragment α7–13 (residues 311–582), P32455 L411A; Q412A; V413A; I414A; F415A; S416A; P417A (protein)
# chain: CMENAVLALAQIENSAAVQKAIAHYEQQMGQKVQLPTETLQELLDLHRDSEREAIEVFIRSSFKDVDHLFQKELAAQLEKKRDDFCKQNQEASSDRCSALAAAAAAALEEEVKAGIYSKPGGYRLFVQKLQDLKKKYYEEPRKGIQAEEILQTYLKSKESMTDAILQTDQTLTEKEKEIEVERVKAESAQASAKMLQEMQRKNEQMMEQKERSYQEHLKQLTEKMENDRVQLLKEQERTLALKLQEQEQLLKEGFQKESRIMKNEIQDLQTK
# B7: Flag-tagged wild-type GBP-1 fragment α7–13 (residues 311–582), P32455 L418A; E419A; E420A; E421A; V422A; K423A (protein)
# chain: CMENAVLALAQIENSAAVQKAIAHYEQQMGQKVQLPTETLQELLDLHRDSEREAIEVFIRSSFKDVDHLFQKELAAQLEKKRDDFCKQNQEASSDRCSALLQVIFSPAAAAAAAGIYSKPGGYRLFVQKLQDLKKKYYEEPRKGIQAEEILQTYLKSKESMTDAILQTDQTLTEKEKEIEVERVKAESAQASAKMLQEMQRKNEQMMEQKERSYQEHLKQLTEKMENDRVQLLKEQERTLALKLQEQEQLLKEGFQKESRIMKNEIQDLQTK
# Molecular target: endogenous TEA domain protein (TEAD), detected with a pan-TEAD antibody, P28347
# Assay: co-immunoprecipitation (α-Flag) with western blot quantification
# Details: chain shown with the change; lysates of transiently transfected HeLa cells; n = 3; parent: est. 1.0; read off a plot
# Chain of endogenous TEA domain protein (TEAD), detected with a pan-TEAD antibody, P28347 (P28347 whole entry, the tested form may be a part): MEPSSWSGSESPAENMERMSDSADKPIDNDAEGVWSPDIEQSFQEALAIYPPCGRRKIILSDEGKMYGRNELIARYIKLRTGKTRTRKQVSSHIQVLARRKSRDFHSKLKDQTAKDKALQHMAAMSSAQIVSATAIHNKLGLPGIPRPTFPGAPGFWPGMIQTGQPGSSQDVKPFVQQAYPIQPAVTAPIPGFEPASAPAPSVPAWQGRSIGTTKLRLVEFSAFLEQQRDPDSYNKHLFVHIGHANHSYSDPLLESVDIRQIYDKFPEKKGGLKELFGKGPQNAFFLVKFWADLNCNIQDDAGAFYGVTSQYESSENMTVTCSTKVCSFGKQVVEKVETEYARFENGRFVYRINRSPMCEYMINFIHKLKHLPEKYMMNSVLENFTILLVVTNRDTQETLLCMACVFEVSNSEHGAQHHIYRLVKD
row,ratio to parent,Binder
1,1.6,B1
2,1.6,B2
3,0.37,B3
4,1.7,B4
5,1.1,B5
6,1.2,B6
7,0.95,B7
